Source: publication PMC9881579, “Reconfigurable asymmetric protein assemblies through implicit negative design” (Science (New York, N.Y.), 2022)

What was measured:
Conditions in all cases: both partners purified
LHD275B [1] = biological target: T1, LHD275B; assay: BLI; biotinylated protomer on streptavidin biosensors, designed partner in solution; 25 °C; 10 mM HEPES pH 7.4, 150 mM NaCl, 3 mM EDTA, 0.05% Surfactant P20, 1 mg/ml BSA; steady-state fit, 1:1 model
T1 construct: de novo designed protomer; BLI: one protomer of the pair was Avi-tagged, biotinylated and immobilised; source: E. coli BL21 LEMO, purified (Ni-NTA, SEC)

LHD275B [2] = biological target: T1, LHD275B; assay: BLI; biotinylated protomer on streptavidin biosensors, designed partner in solution; 25 °C; 10 mM HEPES pH 7.4, 150 mM NaCl, 3 mM EDTA, 0.05% Surfactant P20, 1 mg/ml BSA; global kinetic fit, 1:1 model
LHD298B [3] = biological target: T2, LHD298B; assay: BLI; biotinylated protomer on streptavidin biosensors, designed partner in solution; 25 °C; 10 mM HEPES pH 7.4, 150 mM NaCl, 3 mM EDTA, 0.05% Surfactant P20, 1 mg/ml BSA; steady-state fit, 1:1 model
T2 construct: de novo designed protomer; BLI: one protomer of the pair was Avi-tagged, biotinylated and immobilised; also called LHD298 protomer B; source: E. coli BL21 LEMO, purified (Ni-NTA, SEC)

LHD298B [4] = biological target: T2, LHD298B; assay: BLI; biotinylated protomer on streptavidin biosensors, designed partner in solution; 25 °C; 10 mM HEPES pH 7.4, 150 mM NaCl, 3 mM EDTA, 0.05% Surfactant P20, 1 mg/ml BSA; global kinetic fit, 1:1 model
LHD284B [5] = biological target: T3, LHD284B; assay: BLI; biotinylated protomer on streptavidin biosensors, designed partner in solution; 25 °C; 10 mM HEPES pH 7.4, 150 mM NaCl, 3 mM EDTA, 0.05% Surfactant P20, 1 mg/ml BSA; steady-state fit, 1:1 model
T3 construct: de novo designed protomer; BLI: one protomer of the pair was Avi-tagged, biotinylated and immobilised; also called LHD284 protomer B; source: E. coli BL21 LEMO, purified (Ni-NTA, SEC)

LHD284B [6] = biological target: T3, LHD284B; assay: BLI; biotinylated protomer on streptavidin biosensors, designed partner in solution; 25 °C; 10 mM HEPES pH 7.4, 150 mM NaCl, 3 mM EDTA, 0.05% Surfactant P20, 1 mg/ml BSA; global kinetic fit, 1:1 model
LHD289B [7] = biological target: T4, LHD289B; assay: BLI; biotinylated protomer on streptavidin biosensors, designed partner in solution; 25 °C; 10 mM HEPES pH 7.4, 150 mM NaCl, 3 mM EDTA, 0.05% Surfactant P20, 1 mg/ml BSA; steady-state fit, 1:1 model
T4 construct: de novo designed protomer; BLI: one protomer of the pair was Avi-tagged, biotinylated and immobilised; source: E. coli BL21 LEMO, purified (Ni-NTA, SEC)

LHD289B [8] = biological target: T4, LHD289B; assay: BLI; biotinylated protomer on streptavidin biosensors, designed partner in solution; 25 °C; 10 mM HEPES pH 7.4, 150 mM NaCl, 3 mM EDTA, 0.05% Surfactant P20, 1 mg/ml BSA; global kinetic fit, 1:1 model
LHD317B [9] = biological target: T5, LHD317B; assay: BLI; biotinylated protomer on streptavidin biosensors, designed partner in solution; 25 °C; 10 mM HEPES pH 7.4, 150 mM NaCl, 3 mM EDTA, 0.05% Surfactant P20, 1 mg/ml BSA; steady-state fit, 1:1 model
T5 construct: de novo designed protomer; BLI: one protomer of the pair was Avi-tagged, biotinylated and immobilised; source: E. coli BL21 LEMO, purified (Ni-NTA, SEC)

LHD317B [10] = biological target: T5, LHD317B; assay: BLI; biotinylated protomer on streptavidin biosensors, designed partner in solution; 25 °C; 10 mM HEPES pH 7.4, 150 mM NaCl, 3 mM EDTA, 0.05% Surfactant P20, 1 mg/ml BSA; global kinetic fit, 1:1 model
LHD101B [11] = biological target: T6, LHD101B (biotin on the Avi-tag where immobilised (Fig. S3D)); assay: BLI; biotinylated protomer on streptavidin biosensors, designed partner in solution; 25 °C; 10 mM HEPES pH 7.4, 150 mM NaCl, 3 mM EDTA, 0.05% Surfactant P20, 1 mg/ml BSA; steady-state fit, 1:1 model
T6 construct: de novo designed protomer; also called LHD101 protomer B; source: E. coli BL21 LEMO, purified (Ni-NTA, SEC)

LHD101B [12] = biological target: T6, LHD101B; assay: BLI; biotinylated protomer on streptavidin biosensors, designed partner in solution; 25 °C; 10 mM HEPES pH 7.4, 150 mM NaCl, 3 mM EDTA, 0.05% Surfactant P20, 1 mg/ml BSA; global kinetic fit, 1:1 model
LHD202A [13] = biological target: T7, LHD202A; assay: BLI; biotinylated protomer on streptavidin biosensors, designed partner in solution; 25 °C; 10 mM HEPES pH 7.4, 150 mM NaCl, 3 mM EDTA, 0.05% Surfactant P20, 1 mg/ml BSA; steady-state fit, 1:1 model
T7 construct: de novo designed protomer; BLI: one protomer of the pair was Avi-tagged, biotinylated and immobilised; also called LHD202 protomer A; source: E. coli BL21 LEMO, purified (Ni-NTA, SEC)
T7 sequence (main, as listed by the source): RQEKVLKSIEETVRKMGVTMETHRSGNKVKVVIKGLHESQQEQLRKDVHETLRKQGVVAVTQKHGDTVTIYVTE

LHD202A [14] = biological target: T7, LHD202A; assay: BLI; biotinylated protomer on streptavidin biosensors, designed partner in solution; 25 °C; 10 mM HEPES pH 7.4, 150 mM NaCl, 3 mM EDTA, 0.05% Surfactant P20, 1 mg/ml BSA; global kinetic fit, 1:1 model
LHD278B [15] = biological target: T8, LHD278B; assay: BLI; biotinylated protomer on streptavidin biosensors, designed partner in solution; 25 °C; 10 mM HEPES pH 7.4, 150 mM NaCl, 3 mM EDTA, 0.05% Surfactant P20, 1 mg/ml BSA; steady-state fit, 1:1 model
T8 construct: de novo designed protomer; BLI: one protomer of the pair was Avi-tagged, biotinylated and immobilised; source: E. coli BL21 LEMO, purified (Ni-NTA, SEC)

LHD278B [16] = biological target: T8, LHD278B; assay: BLI; biotinylated protomer on streptavidin biosensors, designed partner in solution; 25 °C; 10 mM HEPES pH 7.4, 150 mM NaCl, 3 mM EDTA, 0.05% Surfactant P20, 1 mg/ml BSA; global kinetic fit, 1:1 model

B1: LHD275A (designed binder)
chain: GRQEKVLKSIEETVRKMGVEMLTFRAGNAVIVVIRGLHPEQAKQLLRDVSQTAHKQGVTVTLTFHGDVVFILVLVGASEEEQKHMQERIQELARIIHEAKRRGVSEEQLREIAEKMAKEIQEWG
Kd (LHD275B [1]): 4.5 ± 0.22 nM
Kd (LHD275B [2]): 2.9 ± 0.01 nM
koff (LHD275B [2]): 0.00041 s⁻¹
kon (LHD275B [2]): 140000 M⁻¹ s⁻¹

B2: LHD298A (designed binder)
chain: GRQEKVLKSIEETVRKMGVTMETHRSGNTVKVVIKGLHESQQEQLHKDVEETVQKEGVFVLVSHHGDTVTIQVYE
Kd (LHD298B [3]): 16 ± 3 nM
Kd (LHD298B [4]): 3.5 ± 0.01 nM
koff (LHD298B [4]): 0.00022 s⁻¹
kon (LHD298B [4]): 64000 M⁻¹ s⁻¹

B3: LHD284A (designed binder)
chain: TDELLERLRQLFEELHERGTIIIVEVHINGERQTKYLILAPKEELKKHLERIREKIEREGSSEVEVKVTSGGTTWTFNEK
Kd (LHD284B [5]): 97 ± 13 nM
Kd (LHD284B [6]): 8.9 ± 0.13 nM
koff (LHD284B [6]): 0.0012 s⁻¹
kon (LHD284B [6]): 130000 M⁻¹ s⁻¹

B4: LHD289A (designed binder)
chain: GRQEKVLKSIEETVRKMGVTMLTHRHGNVVFVVILGLHKQQALQLLRDVHRTAHKQGVTLSITFSGDIVVIAVTVGASEEEKKEVRKIVKEIAKQLRHAETEEEAKEIVQRVIEEWQEEG
Kd (LHD289B [7]): 610 ± 120 nM
Kd (LHD289B [8]): 1080 ± 39 nM
koff (LHD289B [8]): 0.057 s⁻¹
kon (LHD289B [8]): 53000 M⁻¹ s⁻¹

B5: LHD317A (designed binder)
chain: GRQEKVLKSIEETVRKMGVRMLTHRGGNAVIVVIEGLHPSQAEQLLRDVHRTAKKQGVTVHLVFTGDIVVIMVVVGASEEEQEEMHRLVREIAEALHEAKRKGANEEQLEQLLRELLERAEREG
Kd (LHD317B [9]): 56 ± 2.3 nM
Kd (LHD317B [10]): 34.7 ± 0.05 nM
koff (LHD317B [10]): 0.0051 s⁻¹
kon (LHD317B [10]): 150000 M⁻¹ s⁻¹

B6: LHD101A (designed binder)
chain: GRQEKVLKSIEETVRKMGVTMETHRSGNEVKVVIKGLHIKQQRQLYRDVRETSKKQGVETEIEVEGDTVTIVVRE
modifications: biotin on the Avi-tag where immobilised (Fig. S3D, S24B)
Kd (LHD101B [11]): 9.5 ± 0.76 nM
Kd (LHD101B [12]): 1.9 ± 0.04 nM
koff (LHD101B [12]): 0.0043 s⁻¹
kon (LHD101B [12]): 2.2e+06 M⁻¹ s⁻¹

B7: LHD202B (designed binder)
chain: SVEFHIVNISEEQRQRIEEYVRRISKKEGTEVRFEKRDGELTIEVKNLHEKRLQEILEYIERVNK
Kd (LHD202A [13]): 2400 ± 170 nM
Kd (LHD202A [14]): 4800 ± 250 nM
koff (LHD202A [14]): 0.29 ± 0.05 s⁻¹
kon (LHD202A [14]): 60000 M⁻¹ s⁻¹

B8: LHD278A (designed binder)
chain: GRQEKVLKSIEETVRKMGVRMLTHRGGNAVIVVIEGLHPSQIKQLMQDVIKTAKKQGVTVTITVSGDIVVIMVVVGASDEEQEEARRLVQEIARALQEAKRKGANEEQLEQLLRELLERAEREG
Kd (LHD278B [15]): 3.4 ± 0.69 nM
Kd (LHD278B [16]): 0.8 ± 0.003 nM
koff (LHD278B [16]): 0.00022 s⁻¹
kon (LHD278B [16]): 290000 M⁻¹ s⁻¹
